Patent US10618965 (dated 2020)
Positions count from the first letter of the chain named. Where two headings read alike, the source gives them in different places.

Legend:
[1] = target: human FcRn (with beta2-microglobulin) (human); assay: SPR, pH 7.0
[2] = target: human FcRn (with beta2-microglobulin) (human); assay: SPR, pH 7.0; remark: listed apart in the source
human FcgRIa [3] = target: human FcgRIa (human); assay: SPR
human FcgRIIa(R) [4] = target: T1, human FcgRIIa(R) (human); assay: SPR
T1 chain: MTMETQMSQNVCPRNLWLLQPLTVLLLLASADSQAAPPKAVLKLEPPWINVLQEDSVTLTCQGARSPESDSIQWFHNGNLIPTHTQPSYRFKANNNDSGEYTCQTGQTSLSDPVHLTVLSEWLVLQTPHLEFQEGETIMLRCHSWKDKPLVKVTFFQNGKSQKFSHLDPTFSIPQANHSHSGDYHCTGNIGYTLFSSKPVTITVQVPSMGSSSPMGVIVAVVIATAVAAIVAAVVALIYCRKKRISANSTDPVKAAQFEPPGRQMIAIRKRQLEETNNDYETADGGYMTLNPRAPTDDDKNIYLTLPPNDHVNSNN

human FcgRIIb [5] = target: T2, human FcgRIIb (human); assay: SPR
T2 chain: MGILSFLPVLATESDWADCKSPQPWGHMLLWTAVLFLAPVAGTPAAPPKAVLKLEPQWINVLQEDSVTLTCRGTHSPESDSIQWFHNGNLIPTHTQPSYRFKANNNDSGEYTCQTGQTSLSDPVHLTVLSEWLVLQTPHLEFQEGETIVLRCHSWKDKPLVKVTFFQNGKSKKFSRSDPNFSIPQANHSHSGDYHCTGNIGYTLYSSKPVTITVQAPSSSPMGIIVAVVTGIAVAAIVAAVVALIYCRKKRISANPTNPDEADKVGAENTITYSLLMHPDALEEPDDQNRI

human FcgRIIIa(V) = human FcgRIIIa(V) (human); assay: SPR
[6] = target: human FcRn (with beta2-microglobulin) (human); assay: SPR, neutral pH
[7] = target: human FcRn (with beta2-microglobulin) (human); assay: SPR, pH 7.0; remark: listed apart in the source
[8] = target: human FcRn (with beta2-microglobulin) (human); assay: SPR, pH 7.0; remark: listed apart in the source
human FcgRIIb [9] = target: T2, human FcgRIIb; assay: SPR
mouse FcRn = target: T3, mouse FcRn (mouse, UniProt Q61559); assay: SPR, pH 7.0
T3 chain 1: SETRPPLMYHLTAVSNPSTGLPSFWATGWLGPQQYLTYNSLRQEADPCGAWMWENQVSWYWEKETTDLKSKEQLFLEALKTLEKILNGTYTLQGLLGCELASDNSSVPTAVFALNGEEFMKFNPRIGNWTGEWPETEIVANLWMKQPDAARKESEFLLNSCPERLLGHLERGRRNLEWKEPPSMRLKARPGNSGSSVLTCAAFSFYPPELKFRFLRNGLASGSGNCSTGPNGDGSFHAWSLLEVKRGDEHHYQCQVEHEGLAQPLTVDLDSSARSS
T3 chain 2: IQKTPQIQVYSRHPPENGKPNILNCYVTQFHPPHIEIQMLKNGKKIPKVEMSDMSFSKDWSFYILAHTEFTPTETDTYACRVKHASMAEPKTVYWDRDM

human FcgRIIb [10] = target: T2, human FcgRIIb; assay: SPR
human FcgRIIb [11] = target: T2, human FcgRIIb; assay: SPR
human FcgRIa [12] = target: human FcgRIa (human); assay: SPR; remark: listed apart in the source
human FcgRIIb [13] = target: T2, human FcgRIIb; assay: SPR
human FcgRIIa(R) [14] = target: T1, human FcgRIIa(R); assay: SPR
human FcgRIIa(R) [15] = target: T1, human FcgRIIa(R); assay: SPR
human FcgRIa [16] = target: human FcgRIa (human); assay: SPR; remark: listed apart in the source

human FcRn (with beta2-microglobulin) (human), sequence (chain, as listed by the source, chain 1 of 2): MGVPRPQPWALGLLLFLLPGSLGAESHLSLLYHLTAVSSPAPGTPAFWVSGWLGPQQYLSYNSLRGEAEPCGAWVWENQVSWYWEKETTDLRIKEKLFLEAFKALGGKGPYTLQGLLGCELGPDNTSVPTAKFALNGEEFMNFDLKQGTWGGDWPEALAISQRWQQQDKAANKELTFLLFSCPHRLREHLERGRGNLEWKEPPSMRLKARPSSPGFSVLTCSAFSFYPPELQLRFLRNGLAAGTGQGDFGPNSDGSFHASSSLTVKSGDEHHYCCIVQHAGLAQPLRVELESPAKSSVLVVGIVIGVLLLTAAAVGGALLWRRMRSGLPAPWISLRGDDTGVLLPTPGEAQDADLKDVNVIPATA
human FcRn (with beta2-microglobulin) (human), sequence (chain, as listed by the source, chain 2 of 2): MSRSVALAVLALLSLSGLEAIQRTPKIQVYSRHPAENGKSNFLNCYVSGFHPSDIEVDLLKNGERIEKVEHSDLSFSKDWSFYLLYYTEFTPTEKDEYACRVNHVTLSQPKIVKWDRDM
human FcgRIa (human), sequence (chain, as listed by the source): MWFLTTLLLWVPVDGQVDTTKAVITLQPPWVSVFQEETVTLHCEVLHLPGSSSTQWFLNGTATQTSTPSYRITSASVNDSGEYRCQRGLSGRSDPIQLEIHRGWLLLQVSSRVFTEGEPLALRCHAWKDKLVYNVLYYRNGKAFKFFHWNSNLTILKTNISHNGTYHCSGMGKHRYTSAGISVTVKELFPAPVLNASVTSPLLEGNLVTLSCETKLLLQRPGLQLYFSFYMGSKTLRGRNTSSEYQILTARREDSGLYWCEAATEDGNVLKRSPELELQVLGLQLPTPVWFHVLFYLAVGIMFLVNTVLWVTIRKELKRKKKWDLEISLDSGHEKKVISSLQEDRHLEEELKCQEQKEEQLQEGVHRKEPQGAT
human FcgRIIIa(V) (human), sequence (chain, as listed by the source): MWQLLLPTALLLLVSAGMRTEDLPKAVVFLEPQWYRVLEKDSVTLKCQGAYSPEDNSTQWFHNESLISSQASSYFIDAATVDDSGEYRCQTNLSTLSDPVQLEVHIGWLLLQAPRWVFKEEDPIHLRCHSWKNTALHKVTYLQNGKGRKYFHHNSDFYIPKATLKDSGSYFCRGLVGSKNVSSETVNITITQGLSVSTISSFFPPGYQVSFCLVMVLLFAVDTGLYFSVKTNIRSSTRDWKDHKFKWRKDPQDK

B1: IgG1-F140 (antibody)
chain 1: QVQLQESGPGLVKPSETLSLTCAVSGHSISHDHAWSWVRQPPGEGLEWIGFISYSGITNYNPSLQGRVTISRDNSKNTLYLQMNSLRAEDTAVYYCARSLARTTAMDYWGEGTLVTVSSASTKGPSVFPLAPSSKSTSGGTAALGCLVKDYFPEPVTVSWNSGALTSGVHTFPAVLQSSGLYSLSSVVTVPSSSLGTQTYICNVNHKPSNTKVDKKVEPKSCDKTHTCPPCPAPELLGGPKVFLFPPKPKDTLYISRTPEVTCVVVDVSHEDPEVKFNWYVDGVEVHNAKTKPREEQYNSTYRVVSVLTPLHQDWLNGKEYKCKVSNKALPAPIEKTISKAKGQPREPQVYTLPPSRDELTKNQVSLTCLVKGFYPSDIAVEWESNGQPENNYKTTPPVLDSDGSFFLYSKLTVDKSRWQQGNVFSCSVMHEALHYHYTQKSLSLSP
chain 2: not shown
B1 gave a Kd [1] of 36 nM and a Kd [2] of 36 nM.

B2: IL6R-PD087 (antibody)
chain 1: B1 chain 1 with G239M, P240D, K241S, P310V
chain 2: DIQMTQSPSSLSASVGDRVTITCRASQDISSYLNWYQQKPGKAPKLLIYYTSRLHSGVPSRFSGSGSGTDFTFTISSLQPEDIATYYCQQGNTLPYTFGQGTKVEIK
With B2 the Kd (human FcgRIa [3]) was 52 nM, the Kd (human FcgRIIa(R) [4]) was 22000 nM and the Kd (human FcgRIIb [5]) was 2900 nM. For the same binder, the Kd (human FcgRIIIa(V)) was 37000 nM.

B3: IgG1-F21 (antibody)
chain 1: B1 chain 1 with K241S
chain 2: not shown
B3 was tested, and the Kd [6] was 30 nM, the Kd [1] was 30 nM and the Kd [2] was 30 nM.

B4: F821 (antibody)
chain 1: B1 chain 1 with L237R, P310V
chain 2: not shown
Binder B4 has a Kd [7] of 310 nM.

B5: IgG1-F157 (antibody)
chain 1: B1 chain 1 with K241S, Y254M, P259A, M430L
chain 2: not shown
For B5, the Kd [1] was 150 nM.

B6: IgG1-F424 (antibody)
chain 1: B1 chain 1 with Y254M, P259A, M430L
chain 2: not shown
B6 showed a Kd [1] of 94 nM.

B7: F39 (antibody)
chain 1: B1 chain 1 with K241S, S256T, P310V
chain 2: not shown
B7 showed a Kd [6] of 300 nM.

B8: F38 (antibody)
chain 1: B1 chain 1 with K241S, S256T, P310V, Y436W
chain 2: not shown
In the case of B8, the Kd [6] is reported as 100 nM.

B9: F1009 (antibody)
chain 1: B1 chain 1 with L237R, T252V, T309Q, Q313A, Y438V
chain 2: not shown
In the case of B9, the Kd [7] is reported as 12 nM and the Kd [8] is reported as 12 nM.

B10: IgG1-v5 (antibody)
chain 1: B1 chain 1 with P240D, K241S, Y254M, S269E, P310V, L330F, Y436N
chain 2: B2 chain 2
B10 showed a Kd (human FcgRIIb [9]) of 450 nM.

B11: F939 (antibody)
chain 1: B1 chain 1 with L237R, P310V, Y438V
chain 2: not shown
Work on B11 yielded a Kd [7] of 150 nM and a Kd [8] of 153 nM.

B12: mF40 (antibody)
chain 1: DVQLQESGPVLVKPSQSLSLTCTVTGYSITSDHAWSWIRQFPGNKLEWMGYISYSGITTYNPSLKSRISITRDTSKNQFFLQLNSVTTGDTSTYYCARSLARTTAMDYWGQGTSVTVSSAKTTPPSVYPLAPGSAAQTNSMVTLGCLVKGYFPEPVTVTWNSGSLSSGVHTFPAVLQSDLYTLSSSVTVPSSTWPSETVTCNVAHPASSTKVDKKIVPRDCGCKPCICTVKEVSKVFIFPPKPKDVLYITLEPKVTCVVVDISKDDPEVQFSWFVDDVEVHTAQTQPREEQFNSTFRSVSELPIMHQDWLNGKEFKCRVNSAAFPAPIEKTISKTKGRPKAPQVYTIPPPKEQMAKDKVSLTCMITDFFPEDITVEWQWNGQPAENYKNTQPIMDTDGSYFVYSKLNVQKSNWEAGNTFTCSVLHEGLHWHHTEKSLSHSPGK
chain 2: not shown
In the case of B12, the Kd (mouse FcRn) is reported as 3.2 nM.

B13: mF38 (antibody)
chain 1: B12 chain 1 with K231P, K235S
chain 2: not shown
In the case of B13, the Kd (mouse FcRn) is reported as 4 nM.

B14: mF39 (antibody)
chain 1: B12 chain 1 with H429K, W430N
chain 2: not shown
In the case of B14, the Kd (mouse FcRn) is reported as 21 nM.

B15: IgG1-v1 (antibody)
chain 1: not shown
chain 2: B2 chain 2
In the case of B15, the Kd (human FcgRIIb [9]) is reported as 1100 nM and the Kd (human FcgRIIb [10]) is reported as 1100 nM.

B16: IgG1-v3 (antibody)
chain 1: not shown
chain 2: B2 chain 2
B16 was tested, and the Kd (human FcgRIIb [9]) was 13 nM.

B17: IgG1-v2 (antibody)
chain 1: not shown
chain 2: B2 chain 2
Binder B17 has a Kd (human FcgRIIb [10]) of 2300 nM.

B18: IgG1-v4 (antibody)
chain 1: not shown
chain 2: B2 chain 2
B18 gave a Kd (human FcgRIIb [10]) of 11000 nM.

B19: IL6R-BF648 (antibody)
chain 1: not shown
chain 2: B2 chain 2
In the case of B19, the Kd (human FcgRIIb [11]) is reported as 1200 nM, the Kd (human FcgRIa [12]) is reported as 11 nM and the Kd (human FcgRIIb [13]) is reported as 1200 nM. It also gave a Kd (human FcgRIIa(R) [14]) of 15000 nM, a Kd (human FcgRIIa(R) [15]) of 15000 nM and a Kd (human FcgRIa [16]) of 11 nM.
